Measurements taken from US20180186853A1 (HANMI PHARM, published 2018).
Positions of bridges follow the written chain, without caps; N, C: chain ends. Non-standard residues stand in square brackets, D forms with d. No end group written: not given here. Aib = CC(C)(N)C(=O)O

Target: human glucagon receptor (human, UniProt P47871 26-477)
Assay: cell-based or functional assay

Sequence of human glucagon receptor (P47871 26-477): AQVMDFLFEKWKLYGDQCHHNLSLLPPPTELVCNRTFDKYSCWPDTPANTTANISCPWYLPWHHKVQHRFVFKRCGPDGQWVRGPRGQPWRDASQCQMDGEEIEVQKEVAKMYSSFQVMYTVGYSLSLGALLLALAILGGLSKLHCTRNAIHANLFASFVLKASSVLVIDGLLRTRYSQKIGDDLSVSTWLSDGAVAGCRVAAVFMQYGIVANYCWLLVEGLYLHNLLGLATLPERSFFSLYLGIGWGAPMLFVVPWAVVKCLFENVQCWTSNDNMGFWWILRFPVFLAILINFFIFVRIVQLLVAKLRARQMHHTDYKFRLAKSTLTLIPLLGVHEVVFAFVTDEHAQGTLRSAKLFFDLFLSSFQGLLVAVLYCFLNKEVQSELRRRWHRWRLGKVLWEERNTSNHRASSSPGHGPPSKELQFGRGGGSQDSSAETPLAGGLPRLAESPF

Row | In vitro Activity (Relative Activity of SEQ ID NO: 1, %), from cAMP EC50 | Binder
1 | 9.9% | Y[Aib]QGTFTSDCSKYLDERRAKEFVQWLMNT (bridge 16-20; also: ring between positions 16 and 20, kind not given here) [glucagon derivative of SEQ ID NO: 36]
2 | 0.2% | W[Aib]QGTFTSDYSKYCDERRAKEFVQWLMNT (bridge 16-20; also: ring between positions 16 and 20, kind not given here) [glucagon derivative of SEQ ID NO: 34]
3 | 0.3% | W[Aib]QGTFTSDYSKCLDERRAKDFVQWLMNT (bridge 16-20; also: ring between positions 16 and 20, kind not given here) [glucagon derivative of SEQ ID NO: 30]
4 | 6.3% | Y[Aib]QGTFTSDYSKYLDCKRAKEFVQWLMNT (bridge 17-21; also: ring between positions 17 and 21, kind not given here) [glucagon derivative of SEQ ID NO: 31]
5 | 45.2% | Y[Aib]QGTFCSDYSKYLDERRAKDFVQWLMNT (bridge 16-20; also: ring between positions 16 and 20, kind not given here) [glucagon derivative of SEQ ID NO: 41]
6 | 37.9% | Y[Aib]QGTFCSDYSKYLDSRRAQDFVQWLMNT [glucagon derivative of SEQ ID NO: 42]
7 | 75.4% | YXQGTFTSDYSKYLDSRRAQDFVQWLMNTC (X at position 2 = aminoisobutyric acid (Aib)) [glucagon derivative of SEQ ID NO: 44]
8 | 108% | YXQGTFTSDYSKYLDSRRAQDFVQWLMNT (X at position 2 = aminoisobutyric acid (Aib)) [glucagon derivative of SEQ ID NO: 33]
9 | 40.8% | Y[Aib]QGTFVSDYSKYLDERRAKDFVQWLMNTC (bridge 16-20; also: ring between positions 16 and 20, kind not given here) [glucagon derivative of SEQ ID NO: 40]
10 | 3.7% | Y[Aib]QGTFVSDCSKYLDERRAKDFVQWLMNT (bridge 16-20; also: ring between positions 16 and 20, kind not given here) [glucagon derivative of SEQ ID NO: 39]
11 | 0.7% | SQGTFTSDYSKYLDECRAKEFVQWLMNT (lactam 15-19) [glucagon derivative of SEQ ID NO: 32]
12 | 167% | Y[Aib]QGTFCSDYSKYLDERRAKEFVQWLMNT (bridge 16-20; also: ring between positions 16 and 20, kind not given here) [glucagon derivative of SEQ ID NO: 38]
13 | 1.6% | Y[Aib]QGTFTSDCSKYLDSRRAQDFVQWLMNT [glucagon derivative of SEQ ID NO: 43]
14 | 17.7% | Y[Aib]QGTFTSDYSKYCDERRAKEFVQWLMNT (bridge 16-20; also: ring between positions 16 and 20, kind not given here) [glucagon derivative of SEQ ID NO: 35]
15 | 226% | Y[Aib]QGTFTSDYSKYLDERRAKEFVQWLMNTC (bridge 16-20; also: ring between positions 16 and 20, kind not given here) [glucagon derivative of SEQ ID NO: 37]

Further lines, the binder ahead of its results:

Row | Binder | In vitro Activity (Relative Activity of SEQ ID NO: 1, %), from cAMP EC50
16 | HSQGTFTSDYSKYLDCDRAQDFVQWLMNT [glucagon derivative of SEQ ID NO: 2] | 0.6%
17 | Y[Aib]QGTFTSDYSKYLDECRAKEFVQWLMNT (bridge 16-20; also: ring between positions 16 and 20, kind not given here) [glucagon derivative of SEQ ID NO: 20] | 300%
18 | Y[Aib]QGTFVSDYSKYLDECRAKDFVQWLMNT (bridge 16-20; also: ring between positions 16 and 20, kind not given here) [glucagon derivative of SEQ ID NO: 27] | 93.6%
19 | Y[Aib]QGTFTSDYSKYLDCRRAQVFVQWLMRT [glucagon derivative of SEQ ID NO: 16] | 4.2%
20 | HSQGTFTSDYSKYLDSCDAQDFVQWLMNT [glucagon derivative of SEQ ID NO: 4] | < 0.1%
21 | Y[Aib]QGTFTSDYSKCLDEKRAKEFVQWLMNT (bridge 16-20; also: ring between positions 16 and 20, kind not given here) [glucagon derivative of SEQ ID NO: 24] | 58%
22 | Y[Aib]QGTFTSDYSKYLDCKRAKEFVQWLMNT (not fully specified (bridges)) [glucagon derivative of SEQ ID NO: 14] | 18.1%
23 | HSQGTFTSDYSKYLDSCEAQDFVQWLMNT [glucagon derivative of SEQ ID NO: 5] | 0.3%
24 | Y[Aib]QGTFTSDYSKYLDCVRAQDFVQWLMRT [glucagon derivative of SEQ ID NO: 17] | 23.2%
25 | Y[Aib]QGTFTSDYSKYLDEKRAKEFVQWLMNTC (bridge 16-20; also: ring between positions 16 and 20, kind not given here) [glucagon derivative of SEQ ID NO: 12] | 56.3%
26 | Y[Aib]QGTFTSDYSKYLDSCDAQDFVVWLINT [glucagon derivative of SEQ ID NO: 9] | < 0.1%
27 | Y[Aib]QGTFTSDYSKYLCEKRAQDFVVWLMNT [glucagon derivative of SEQ ID NO: 15] | 1.1%
28 | Y[Aib]QGTFTSDYSKYLDEKRCKEFVQWLMNT (bridge 16-20; also: ring between positions 16 and 20, kind not given here) [glucagon derivative of SEQ ID NO: 22] | 148%
29 | Y[Aib]QGTFTSDYSKCLDERRAKDFVQWLMNT (bridge 16-20; also: ring between positions 16 and 20, kind not given here) [glucagon derivative of SEQ ID NO: 29] | 61.3%
30 | Y[Aib]QGTFTSDYSKYLDEKCAKEFVQWLMNT (not fully specified (bridges)) [glucagon derivative of SEQ ID NO: 11] | 4.6%
31 | Y[Aib]QGTFTSDYSKYLCEKRAKEFVQWLMNT (bridge 16-20; also: ring between positions 16 and 20, kind not given here) [glucagon derivative of SEQ ID NO: 19] | 12.1%
32 | Y[Aib]QGTFTSDYSKYLDSRRACDFRLWLMNT [glucagon derivative of SEQ ID NO: 18] | < 0.1%
33 | Y[Aib]QGTFTSDYSKYLDEKCAKEFVQWLMNT (bridge 16-20; also: ring between positions 16 and 20, kind not given here) [glucagon derivative of SEQ ID NO: 21] | 57.8%
34 | Y[Aib]QGTFTSDYSKYCDEKRAKEFVQWLMNT (bridge 16-20; also: ring between positions 16 and 20, kind not given here) [glucagon derivative of SEQ ID NO: 23] | 76.8%
35 | Y[Aib]QGTFTSDYSCYLDSRRAQDFVQWLMNT [glucagon derivative of SEQ ID NO: 13] | 5.2%
36 | W[Aib]QGTFVSDYSKYLDECRAKDFVQWLMNT (bridge 16-20; also: ring between positions 16 and 20, kind not given here) [glucagon derivative of SEQ ID NO: 28] | < 0.1%
37 | HSQGTFTSDYSKYLDCERAQDFVQWLMNT [glucagon derivative of SEQ ID NO: 3] | 6.1%
38 | W[Aib]QGTFTSDYSKYLDECRAKDFVQWLMNT (bridge 16-20; also: ring between positions 16 and 20, kind not given here) [glucagon derivative of SEQ ID NO: 26] | 1%
39 | Y[Aib]QGTFTSDYSKYLDSCDADDFVVWLINT [glucagon derivative of SEQ ID NO: 10] | < 0.1%
40 | Y[Aib]QGTFTSDYSKYLDEKRAKCFVQWLMNT (bridge 16-20; also: ring between positions 16 and 20, kind not given here) [glucagon derivative of SEQ ID NO: 25] | 46.9%
